In article PMC10000358, “Development of an inhibiting antibody against equine interleukin 5 to treat insect bite hypersensitivity of horses” (Scientific Reports, 2023):
Where a chain is given by its changes, count along the chain named. In names and notes the source's numbering stands. Several values for one entry are separate records, joined by “and”; a condition that tells them apart may be missing. Identical values can stand only once.

T1: equine interleukin 5 with 8 × His-tag (equine (horse), UniProt O02699 20-134)
T1 chain: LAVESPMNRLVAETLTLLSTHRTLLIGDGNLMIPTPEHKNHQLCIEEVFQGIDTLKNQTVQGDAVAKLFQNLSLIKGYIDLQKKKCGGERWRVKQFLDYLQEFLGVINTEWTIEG

B1: NOL225-2-C1 (eqIgG6 format) (antibody, V domains shown)
VH: QVQLQQSGGGVVQPGRSLRLSCAASGFTFSSYGMHWVRQAPGKGLEWVAVIWYDGRNKYYADSVKGRFTISRDNSKNTLYLQMNSLRAEDTAVYYCARGLFGRSYFDYWGQGTLVTVSS
VL: SYELTQPPSMSVAPGQTARIACEGDNIGSKSVHWYQQRPGQAPVLVVFDDTDRPSGIPDRFSGSNSGNTATLTISRVEVGDEADYYCQVWDSGDGHPRVFGGGTKLTVL
notes: source: Expi293F suspension cells, purified (HiTrap Fibro PrismA or Protein G HP)
B2: NOL231-1-A3 (eqIgG6 format) (antibody, V domains shown)
VH: B1 VH with R56S, F101Y
VL: B1 VL with M10V, R19K, F48Y, H96N
notes: as the VH of m3 (NOL48-1-D5); as the VL of m3 (NOL48-1-D5) with H96N in the CDR3 of the VL; source: Expi293F suspension cells, purified (HiTrap Fibro PrismA or Protein G HP)
B3: NOL231-2-E2 (eqIgG6 format) (antibody, V domains shown)
VH: B1 VH with G8E, V48L, R56S
VL: B1 VL with M10V, R19K, A21T, F48Y
notes: as for B1
B4: NOL162-1-F5 (eqIgG6 format) (antibody, V domains shown)
VH: EVQLVETGGGVVQPGRSLRLSCAASGFTFSSYGMHWVRQAPGKGLEWVAVISYDGSNKYYADSVKGRFTISRDNSKNTLYLQMNSLRAEDTAVYYCAKGFKIQLWFAAFDIWGQGTMVTVSS
VL: QSVLTQPPSVSVAPGQTARITCGGNNIGSKSVHWYQQKPGQAPVLVVYDDSDRPSGIPERFSGSNSGNTATLTISRVEAGDEADYYCQVWDSSSDPVVFGGGTKLTVL
notes: human VH of NOL162-1-F5 (selected from HAL9/10); human VL of NOL162-1-F5; Chimeric IgG: human VH and VL, all constant domains equine (IgG6); Selected by panning in MTP; also called parental antibody; parAB; source: Expi293F suspension cells, purified (HiTrap Fibro PrismA or Protein G HP)
B5: NOL226-2-D10 (eqIgG6 format) (antibody, V domains shown)
VH: B4 VH with A97V, F100L
VL: B4 VL
notes: as the VH of m4 (NOL162-1-F5) with A97V and F100L, both in the CDR3 of the VH; as the VL of m4 (NOL162-1-F5); also called final antibody; final candidate; source: Expi293F suspension cells, purified (HiTrap Fibro PrismA or Protein G HP)
B6: NOL48-1-D5 (eqIgG6 format) (antibody, V domains shown)
VH: B1 VH with R56S, F101Y
VL: B1 VL with M10V, R19K, F48Y
notes: human VH of NOL48-1-D5 (selected from HAL9/10); human VL of NOL48-1-D5; Chimeric IgG: human VH and VL, all constant domains equine (IgG6); Selected by panning in solution; also called parental antibody; parAB; source: Expi293F suspension cells, purified (HiTrap Fibro PrismA or Protein G HP)
B7: NOL226-2-D1 (antibody, V domains shown)
VH: B4 VH with Q13R, A97V
VL: B4 VL with S75G, A79S
B8: NOL226-2-G9 (antibody, V domains shown)
VH: B4 VH with V5E, S30G
VL: B4 VL with V10I, Q36H
B9: NOL229-C3 (antibody, V domains shown)
VH: B4 VH with S30R, Y53N, T116A
VL: B4 VL with S66T
B10: NOL225-2-F10 (antibody, V domains shown)
VH: B1 VH with R56S, M83I, F101Y
VL: B1 VL with M10V, R19K, A21V, F48Y

Biological target: T1, equine interleukin 5 with 8 × His-tag
Assay: ELISA
Settings: not given

Binder	EC50
B1	0.4 nM
B2	0.5 nM
B3	0.5 nM

biological target: T2, equine interleukin 5 with 8 × His-tag (Equus caballus, UniProt O02699); assay: flow cytometry on cells; cellular in vitro inhibition assay: antibody (screening 1000 nM; titration 1000 nM-0.32 nM) pre-incubated with 5 nM eqIL-5 (related to dimer), then added to 5 x 10^5 eqIL-5 receptor expressing Expi293F cells for 45 min on ice, FACS buffer (2% FCS, 5 mM EDTA in PBS); bound eqIL-5 detected by Penta-His antibody and anti mouse Fc-APC; IC50 by Logistic5 fit; single measurements; settings: both partners purified
T2 construct: equine interleukin 5, UniProt O02699; 134 amino acids of which the first 19 are the signal peptide; the gene was ordered without the signal peptide; The limits 20-134 follow from the printed length (134) and signal peptide (first 19); also called eqIL-5; eqIL-5-His; source: Expi293F suspension cells, purified (nickel-loaded Sepharose, dialyzed in 1 x PBS)

Binder	IC50
B4	7 nM and 12 nM
B5	4 nM
B1	4 nM
B2	4 nM
B3	3 nM
B6	6 nM and 12 nM

biological target: T2, equine interleukin 5 with 8 × His-tag; assay: not given; settings: not given

Binder	binding result
B7	binds
B8	binds
B9	binds
B10	binds

biological target: T3, BSA (Bos taurus, UniProt P02769); assay: ELISA; unspecificity ELISA: antigens immobilised at 10 ug/mL in PBS, blocked with 2% MPBST; 100 nM eqIgG6 antibody, 1 h at RT; detected with anti horse IgG (Fc)-HRP; settings: both partners purified
T3 construct: BSA (serum albumin), negative control coated on the plate
T3 sequence (P02769 25-607): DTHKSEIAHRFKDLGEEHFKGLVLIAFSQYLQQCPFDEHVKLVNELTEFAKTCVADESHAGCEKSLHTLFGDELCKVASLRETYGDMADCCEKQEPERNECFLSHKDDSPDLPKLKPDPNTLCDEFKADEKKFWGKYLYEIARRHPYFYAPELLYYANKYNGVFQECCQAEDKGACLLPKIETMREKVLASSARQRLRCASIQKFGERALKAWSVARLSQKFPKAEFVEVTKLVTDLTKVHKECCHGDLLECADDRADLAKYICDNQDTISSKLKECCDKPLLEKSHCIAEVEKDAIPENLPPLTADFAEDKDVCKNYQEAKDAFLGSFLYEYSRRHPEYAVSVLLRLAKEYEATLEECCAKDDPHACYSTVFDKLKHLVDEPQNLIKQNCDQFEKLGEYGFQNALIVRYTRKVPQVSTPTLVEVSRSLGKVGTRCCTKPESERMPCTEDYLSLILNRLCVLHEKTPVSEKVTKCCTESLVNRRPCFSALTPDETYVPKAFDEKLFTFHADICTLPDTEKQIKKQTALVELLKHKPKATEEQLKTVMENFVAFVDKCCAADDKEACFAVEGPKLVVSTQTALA

Binder	binding result
B4	no binding (tested: 100 nM)
B5	no binding (tested: 100 nM)

biological target: T2, equine interleukin 5 with 8 × His-tag; assay: flow cytometry on cells; competitive cellular inhibition assay: no pre-incubation; 1000 nM-0.1 nM antibody first put on 5 x 10^5 receptor expressing cells, then 5 nM eqIL-5 (related to dimer) added for 45 min on ice; detection as before; settings: both partners purified

Binder	IC50
B4	15 nM
B5	9 nM

biological target: T3, BSA; assay: ELISA; titration ELISA: 100 ng eqIL-5/well (or 1% BSA as negative control) immobilised, blocked with 2% MPBST; eqIgG6 antibody titrated from 316 nM, 1 h at RT; detected with anti horse IgG (Fc)-HRP; EC50 by Logistic5 fit; triplicates; settings: both partners purified

Binder	binding result
B1	no binding (tested: 316 nM)
B2	no binding (tested: 316 nM)
B3	no binding (tested: 316 nM)
B6	no binding (tested: 316 nM)

biological target: T2, equine interleukin 5 with 8 × His-tag; assay: as above; settings: both partners purified

Binder	EC50
B4	9 nM
B5	8.8 nM
B6	1 nM
